{
  "source": "paper PMC11726873",
  "target": "PALB2 construct (UniProt Q86YC2)",
  "sequence (Q86YC2 whole entry, the tested form may be a part)": "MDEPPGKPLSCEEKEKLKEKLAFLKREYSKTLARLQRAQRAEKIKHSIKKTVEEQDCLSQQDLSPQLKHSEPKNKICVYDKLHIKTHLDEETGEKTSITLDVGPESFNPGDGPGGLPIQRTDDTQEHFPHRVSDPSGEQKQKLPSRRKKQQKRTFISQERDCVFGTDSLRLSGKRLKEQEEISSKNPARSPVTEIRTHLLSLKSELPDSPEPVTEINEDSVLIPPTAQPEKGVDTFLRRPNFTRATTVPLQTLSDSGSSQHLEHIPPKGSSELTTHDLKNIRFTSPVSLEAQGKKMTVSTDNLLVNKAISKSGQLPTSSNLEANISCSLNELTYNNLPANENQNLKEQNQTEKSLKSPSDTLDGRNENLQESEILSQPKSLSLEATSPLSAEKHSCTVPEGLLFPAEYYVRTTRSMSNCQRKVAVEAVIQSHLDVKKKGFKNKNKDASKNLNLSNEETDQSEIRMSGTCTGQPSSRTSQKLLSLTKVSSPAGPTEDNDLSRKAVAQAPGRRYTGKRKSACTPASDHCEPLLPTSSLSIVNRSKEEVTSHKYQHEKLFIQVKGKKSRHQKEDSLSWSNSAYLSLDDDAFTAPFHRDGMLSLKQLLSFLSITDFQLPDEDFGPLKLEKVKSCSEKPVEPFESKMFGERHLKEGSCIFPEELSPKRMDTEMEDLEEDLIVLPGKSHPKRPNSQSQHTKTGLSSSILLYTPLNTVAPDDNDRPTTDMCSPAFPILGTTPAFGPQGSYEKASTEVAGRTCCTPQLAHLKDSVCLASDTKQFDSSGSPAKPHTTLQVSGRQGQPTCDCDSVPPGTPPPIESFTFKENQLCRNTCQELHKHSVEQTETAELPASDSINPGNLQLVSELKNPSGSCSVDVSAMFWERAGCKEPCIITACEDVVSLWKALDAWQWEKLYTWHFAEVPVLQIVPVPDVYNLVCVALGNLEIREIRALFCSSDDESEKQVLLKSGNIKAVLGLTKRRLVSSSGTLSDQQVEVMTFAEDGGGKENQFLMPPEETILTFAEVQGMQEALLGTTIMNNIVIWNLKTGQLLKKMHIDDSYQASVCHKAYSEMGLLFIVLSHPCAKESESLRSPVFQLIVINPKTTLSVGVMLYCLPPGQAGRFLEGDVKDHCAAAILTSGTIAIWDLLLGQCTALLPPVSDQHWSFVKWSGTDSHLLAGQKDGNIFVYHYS",
  "test": "ITC; BRCA1 (control 0.6 mM, 17 injections; modified 0.255 mM, 32 injections) titrated into PALB2 at 0.06 mM in the cell; 25 °C; 50 mM NaCl, 25 mM sodium phosphate, pH 6.5; single binding site model",
  "data": [
    {"binder": "BRCA1 disordered PALB2-binding domain, residues 1377-1426, modified with dichlorotriazine 1 (indole-labeled) (domain or fragment, a single 272 Da indole incorporation from dichlorotriazine 1; site not determined by MS/MS, the single lysine (residue 1406 in BRCA1) is the intended site) GPGSSVSEDCSGLSSQSDILTTQQRDTMQHNLIKLQQEMAELEAVLEQHGSQPS", "values": [
      {"measurement": "Kd", "result": 3, "unit": "µM"}
    ]},
    {"binder": "BRCA1 disordered PALB2-binding domain, residues 1377-1426, control (unmodified) preparation (domain or fragment) GPGSSVSEDCSGLSSQSDILTTQQRDTMQHNLIKLQQEMAELEAVLEQHGSQPS", "values": [
      {"measurement": "Kd", "result": 4.1, "unit": "µM"}
    ]}
  ]
}
